In the Human Domainome abundance scans (Beltran et al. 2025):
± gives the uncertainty stated by the source.

B1: E3 ubiquitin-protein ligase Midline-1, residues 172 to 214; numbered along this chain, O15344 (parent)
chain: GLMCLEHEDEKVNMYCVTDDQLICALCKLVGRHRDHQVAALSE

Variants of: B1
Test: abundance fitness (aPCA) (normalised: wild type 0, dead -1); higher = more abundant; growth selection in yeast, the domain comes from the species named
Conditions: Homo sapiens
For GLMCLEHEDEKVNMYCVTDDQLICAACKLVGRHRDHQVAALSE [L26A], the abundance fitness was 0.083 ± 0.058.
For GLMCLEHEDEKVNMYCVTDDQLICAVCKLVGRHRDHQVAALSE [L26V], the abundance fitness was 0.027 ± 0.052.
GLMCLEHEDEKVNMYCVTDDQLICAICKLVGRHRDHQVAALSE [L26I] showed an abundance fitness of -0.525 ± 0.21.
GLMCLEHEDEKVNMYCVTDDQLICATCKLVGRHRDHQVAALSE [L26T] gave an abundance fitness of 0.189 ± 0.078.
In the case of GLMCLEHEDEKVNMYCVTDDQLICASCKLVGRHRDHQVAALSE [L26S], the abundance fitness is reported as 0.165 ± 0.062.
Variant GLMCLEHEDEKVNMYCVTDDQLICAKCKLVGRHRDHQVAALSE [L26K] has an abundance fitness of 0.193 ± 0.084.
With GLMCLEHEDEKVNMYCVTDDQLICAQCKLVGRHRDHQVAALSE [L26Q] the abundance fitness was 0.387 ± 0.077.
With GLMCLEHEDEKVNMYCVTDDQLICAHCKLVGRHRDHQVAALSE [L26H] the abundance fitness was 0.353 ± 0.17.
GLMCLEHEDEKVNMYCVTDDQLICALCKAVGRHRDHQVAALSE [L29A] gave an abundance fitness of 0.135 ± 0.053.
Variant GLMCLEHEDEKVNMYCVTDDQLICALCKKVGRHRDHQVAALSE [L29K] has an abundance fitness of 0.182 ± 0.073.
For GLMCLEHEDEKVNMYCVTDDQLICALCKGVGRHRDHQVAALSE [L29G], the abundance fitness was 0.213 ± 0.045.
Variant GLMCLEHEDEKVNMYCVTDDQLICALCKMVGRHRDHQVAALSE [L29M] has an abundance fitness of 0.086 ± 0.084.
With GLMCLEHEDEKVNMYCVTDDQLICALCKEVGRHRDHQVAALSE [L29E] the abundance fitness was 0.211 ± 0.06.
GLMCLEHEDEKVNMYCVTDDQLICALCKSVGRHRDHQVAALSE [L29S] gave an abundance fitness of 0.279 ± 0.055.
With GLMCLEHEDEKVNMYCVTDDQLICALCKNVGRHRDHQVAALSE [L29N] the abundance fitness was 0.072 ± 0.093.
For GLMCLEHEDEKVNMYCVTDDQLICALCKDVGRHRDHQVAALSE [L29D], the abundance fitness was 0.241 ± 0.079.
Work on GLMCLEHEDEKVNMYCVTDDQLICALCKFVGRHRDHQVAALSE [L29F] yielded an abundance fitness of -0.262 ± 0.14.
GLMCLEHEDEKVNMYCVTDDQLICALCKCVGRHRDHQVAALSE [L29C] gave an abundance fitness of 0.025 ± 0.081.
GLMCLEHEDEKVNMYCVTDDQLICALCKVVGRHRDHQVAALSE [L29V] gave an abundance fitness of 0.008 ± 0.059.
Variant GLMCLEHEDEKVNMYCVTDDQLICALCKYVGRHRDHQVAALSE [L29Y] has an abundance fitness of -0.085 ± 0.21.
In the case of GLMCLEHEDEKVNMYCVTDDQLICALCKTVGRHRDHQVAALSE [L29T], the abundance fitness is reported as 0.175 ± 0.059.
Variant GLMCLEHEDEKVNMYCVTDDQLICALCKRVGRHRDHQVAALSE [L29R] has an abundance fitness of 0.227 ± 0.047.
For GLMCLEHEDEKVNMYCVTDDQLICALCKQVGRHRDHQVAALSE [L29Q], the abundance fitness was -0.016 ± 0.091.
With GLMCLEHEDEKVNMYCVTDDQLICALCKHVGRHRDHQVAALSE [L29H] the abundance fitness was 0.19 ± 0.061.
Variant GLMCLEHEDEKVNMYCVTDDQLICALCKIVGRHRDHQVAALSE [L29I] has an abundance fitness of -0.205 ± 0.12.
Work on GLMCLEHEDEKVNMYCVTDDQLICALCQLVGRHRDHQVAALSE [K28Q] yielded an abundance fitness of 0.288 ± 0.066.
With GLMCLEHEDEKVNMYCVTDDQLICALCELVGRHRDHQVAALSE [K28E] the abundance fitness was 0.007 ± 0.062.
In the case of GLMCLEHEDEKVNMYCVTDDQLICALCILVGRHRDHQVAALSE [K28I], the abundance fitness is reported as 0.061 ± 0.16.
In the case of GLMCLEHEDEKVNMYCVTDDQLICALCALVGRHRDHQVAALSE [K28A], the abundance fitness is reported as 0.083 ± 0.059.
Variant GLMCLEHEDEKVNMYCVTDDQLICALCNLVGRHRDHQVAALSE [K28N] has an abundance fitness of -0.042 ± 0.085.
Work on GLMCLEHEDEKVNMYCVTDDQLICALCLLVGRHRDHQVAALSE [K28L] yielded an abundance fitness of -0.16 ± 0.054.
GLMCLEHEDEKVNMYCVTDDQLICALCPLVGRHRDHQVAALSE [K28P] showed an abundance fitness of 0 ± 0.074.
GLMCLEHEDEKVNMYCVTDDQLICALCMLVGRHRDHQVAALSE [K28M] gave an abundance fitness of -0.114 ± 0.07.
Variant GLMCLEHEDEKVNMYCVTDDQLICALCYLVGRHRDHQVAALSE [K28Y] has an abundance fitness of -0.161 ± 0.082.
With GLMCLEHEDEKVNMYCVTDDQLICALCVLVGRHRDHQVAALSE [K28V] the abundance fitness was -0.396 ± 0.068.
For GLMCLEHEDEKVNMYCVTDDQLICALCFLVGRHRDHQVAALSE [K28F], the abundance fitness was -0.316 ± 0.22.
For GLMCLEHEDEKVNMYCVTDDQLICALCSLVGRHRDHQVAALSE [K28S], the abundance fitness was 0.013 ± 0.069.
In the case of GLMCLEHEDEKVNMYCVTDDQLICALCHLVGRHRDHQVAALSE [K28H], the abundance fitness is reported as 0.083 ± 0.098.
GLMCLEHEDEKVNMYCVTDDQLICALCTLVGRHRDHQVAALSE [K28T] gave an abundance fitness of 0.063 ± 0.06.
GLMCLEHEDEKVNMYCVTDDQLICALCCLVGRHRDHQVAALSE [K28C] showed an abundance fitness of -0.148 ± 0.074.
In the case of GLMCLEHEDEKVNMYCVTDDQLICALCRLVGRHRDHQVAALSE [K28R], the abundance fitness is reported as 0.119 ± 0.05.
GLMCLEHEDEKVNMYCVTDDQLICALCWLVGRHRDHQVAALSE [K28W] gave an abundance fitness of -0.149 ± 0.083.
GLMCLEHEDEKVNMYCVTDDQLICALCDLVGRHRDHQVAALSE [K28D] gave an abundance fitness of -0.038 ± 0.35.
GLMCLEHEDEKVNMYCVTDDQLICALCGLVGRHRDHQVAALSE [K28G] showed an abundance fitness of 0.013 ± 0.045.
GLMCLEHEDEKVNMYCVTDDQLIAALCKLVGRHRDHQVAALSE [C24A] gave an abundance fitness of -0.799 ± 0.13.
GLMCLEHEDEKVNMYCVTDDQLIEALCKLVGRHRDHQVAALSE [C24E] gave an abundance fitness of -1.05 ± 0.14.
For GLMCLEHEDEKVNMYCVTDDQLITALCKLVGRHRDHQVAALSE [C24T], the abundance fitness was -0.706 ± 0.23.
GLMCLEHEDEKVNMYCVTDDQLIPALCKLVGRHRDHQVAALSE [C24P] gave an abundance fitness of -0.977 ± 0.18.
Work on GLMCLEHEDEKVNMYCVTDDQLILALCKLVGRHRDHQVAALSE [C24L] yielded an abundance fitness of -0.868 ± 0.093.
GLMCLEHEDEKVNMYCVTDDQLIYALCKLVGRHRDHQVAALSE [C24Y] gave an abundance fitness of -0.364 ± 0.31.
In the case of GLMCLEHEDEKVNMYCVTDDQLIWALCKLVGRHRDHQVAALSE [C24W], the abundance fitness is reported as -0.978 ± 0.12.
For GLMCLEHEDEKVNMYCVTDDQLIMALCKLVGRHRDHQVAALSE [C24M], the abundance fitness was -1.02 ± 0.39.
Work on GLMCLEHEDEKVNMYCVTDDQLISALCKLVGRHRDHQVAALSE [C24S] yielded an abundance fitness of -1.01 ± 0.13.
With GLMCLEHEDEKVNMYCVTDDQLIRALCKLVGRHRDHQVAALSE [C24R] the abundance fitness was -1.02 ± 0.1.
Work on GLMCLEHEDEKVNMYCVTDDQLIQALCKLVGRHRDHQVAALSE [C24Q] yielded an abundance fitness of -0.792 ± 0.15.
For GLMCLEHEDEKVNMYCVTDDQLIGALCKLVGRHRDHQVAALSE [C24G], the abundance fitness was -0.814 ± 0.082.
GLMCLEHEDEKVNMYCVTDDQLINALCKLVGRHRDHQVAALSE [C24N] showed an abundance fitness of -0.656 ± 0.21.
With GLMCLEHEDEKVNMYCVTDDQLIVALCKLVGRHRDHQVAALSE [C24V] the abundance fitness was -0.971 ± 0.13.
GLMCLEHEDEKVNMYCVTDDQLIKALCKLVGRHRDHQVAALSE [C24K] gave an abundance fitness of -0.885 ± 0.25.
